Measurements reported in patent US20220289850 (published 2022).
One block for each binder: values may come before it.

Biological target: T1, human integrin avb8 (human)
T1 chain 1: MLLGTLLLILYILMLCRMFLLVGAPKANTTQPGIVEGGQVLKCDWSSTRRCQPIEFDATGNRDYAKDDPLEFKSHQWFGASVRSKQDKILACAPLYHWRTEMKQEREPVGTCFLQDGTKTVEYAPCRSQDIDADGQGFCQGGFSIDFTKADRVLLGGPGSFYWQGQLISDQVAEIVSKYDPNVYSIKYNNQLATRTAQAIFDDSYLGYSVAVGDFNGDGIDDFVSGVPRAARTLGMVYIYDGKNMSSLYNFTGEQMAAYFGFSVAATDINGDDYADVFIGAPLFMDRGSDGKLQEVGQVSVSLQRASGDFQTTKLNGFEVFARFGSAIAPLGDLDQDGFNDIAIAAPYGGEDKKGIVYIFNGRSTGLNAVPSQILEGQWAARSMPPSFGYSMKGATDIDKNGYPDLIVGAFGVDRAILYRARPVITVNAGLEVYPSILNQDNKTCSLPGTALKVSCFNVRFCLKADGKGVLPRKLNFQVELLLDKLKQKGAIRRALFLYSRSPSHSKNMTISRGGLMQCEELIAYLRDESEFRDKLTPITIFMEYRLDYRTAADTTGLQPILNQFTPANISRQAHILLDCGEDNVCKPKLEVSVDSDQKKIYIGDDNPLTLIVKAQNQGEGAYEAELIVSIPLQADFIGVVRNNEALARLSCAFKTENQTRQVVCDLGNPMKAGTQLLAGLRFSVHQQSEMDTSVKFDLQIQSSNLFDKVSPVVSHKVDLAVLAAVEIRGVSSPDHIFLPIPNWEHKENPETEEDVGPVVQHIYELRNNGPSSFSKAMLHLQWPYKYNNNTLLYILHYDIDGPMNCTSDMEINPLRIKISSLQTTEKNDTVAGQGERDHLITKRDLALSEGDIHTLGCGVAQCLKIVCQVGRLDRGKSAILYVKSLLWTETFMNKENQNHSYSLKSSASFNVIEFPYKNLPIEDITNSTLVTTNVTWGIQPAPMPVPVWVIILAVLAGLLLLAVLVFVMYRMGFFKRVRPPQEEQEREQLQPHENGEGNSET
T1 chain 2: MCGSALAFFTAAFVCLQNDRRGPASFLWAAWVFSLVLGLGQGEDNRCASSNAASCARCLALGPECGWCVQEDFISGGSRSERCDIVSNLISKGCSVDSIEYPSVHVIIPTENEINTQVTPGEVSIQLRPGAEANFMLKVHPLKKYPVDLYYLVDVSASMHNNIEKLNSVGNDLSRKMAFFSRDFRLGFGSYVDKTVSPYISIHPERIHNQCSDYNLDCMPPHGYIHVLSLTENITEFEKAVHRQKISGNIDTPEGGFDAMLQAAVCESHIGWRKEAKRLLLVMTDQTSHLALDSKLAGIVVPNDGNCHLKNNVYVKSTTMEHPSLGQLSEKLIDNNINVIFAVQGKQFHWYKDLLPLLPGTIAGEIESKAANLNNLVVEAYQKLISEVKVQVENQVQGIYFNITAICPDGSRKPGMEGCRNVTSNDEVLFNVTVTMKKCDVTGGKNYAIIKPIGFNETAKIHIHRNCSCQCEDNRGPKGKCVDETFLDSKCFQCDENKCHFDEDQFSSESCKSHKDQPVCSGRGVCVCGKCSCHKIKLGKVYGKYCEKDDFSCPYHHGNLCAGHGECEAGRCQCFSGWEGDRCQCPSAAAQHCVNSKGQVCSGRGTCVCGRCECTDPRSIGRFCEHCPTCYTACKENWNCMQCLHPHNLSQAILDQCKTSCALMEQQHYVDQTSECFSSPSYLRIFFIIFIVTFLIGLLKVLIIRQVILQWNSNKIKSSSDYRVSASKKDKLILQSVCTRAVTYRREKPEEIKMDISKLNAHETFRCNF
Experiment: SPR

- Kd: < 0.1 nM
B1: ADWA11 VH05/VK01 (VH05-2_VK01) Fab (antibody, V domains shown)
VH: EVQLVESGGGLVQPGGSLRLSCAASGFNIKDYYMNWVRQAPGKGLEWVGWIDPDNGNTIYDPKFQGRFTISADTSKNSAYLQMNSLRAEDTAVYYCARRLLMDYWGQGTLVTVSS
VL: DIQMTQSPSSLSASVGDRVTITCRSTKSLLHFNGNTYLFWYQQKPGKAPKRLIYYMSNLASGVPSRFSGSGSGTDFTLTISSLQPEDFATYYCMQSLEYPFTFGQGTKVEIK

- Kd: 0.536 nM
B2: Mouse hybridoma ADWA-11 Fab (antibody, V domains shown)
VH: EVQLQQSGAELVRPGAFVKLSCKASGFNIKDYYMNWVLQRPEQGLEWIGWIDPDNGNTIYDPKFQGKASITADTSSNTAYLQLSSLTSEDTAVYYCARRLLMDYWGQGTSVTVSS
VL: DIVMTQAAPSVPVTPGESVSISCRSTKSLLHFNGNTYLFWFLQRPGQSPQRLIYYMSNLASGVPDRFSGRGSGTDFTLRISRVEAEDVGVYYCMQSLEYPFTFGTGTKLEIK
